Measured values from article PMC12551710, “The hook-like adaptor and cargo-binding (HAC) domain in the kinesin-2 tail enables adaptor assembly and cargo recognition” (Science Advances, 2025).

T1: KIF3B C-terminal region (BCT), residues 475 to 747 (Mus musculus, UniProt Q61771 475-747)
T1 construct: KIF3B, Mus musculus, NCBI NP_032470.3, C-terminal region residues 475 to 747 (BCT), without expression tags; residues 580 to 675 are resolved; also called KIF3B tail; source: E. coli BL21 (DE3), coexpressed with the KIF3A tail from pETDuet-1, purified within the reconstituted complex
T1 sequence (looked up): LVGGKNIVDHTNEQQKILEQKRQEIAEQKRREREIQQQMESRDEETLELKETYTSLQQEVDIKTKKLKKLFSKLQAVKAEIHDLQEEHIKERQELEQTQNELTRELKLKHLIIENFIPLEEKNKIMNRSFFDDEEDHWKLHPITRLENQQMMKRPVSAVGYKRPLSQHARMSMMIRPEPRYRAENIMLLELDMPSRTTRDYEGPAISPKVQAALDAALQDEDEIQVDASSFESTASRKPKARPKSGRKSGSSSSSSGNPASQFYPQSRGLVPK

B1: ARM domain of APC (APCARM), residues 338 to 1010 (domain or fragment, Mus musculus, UniProt Q61315 338-1010, looked up)
chain: SQDSCISMRQSGCLPLLIQLLHGNDKDSVLLGNSRGSKEARARASAALHNIIHSQPDDKRGRREIRVLHLLEQIRAYCETCWEWQEAHEQGMDQDKNPMPAPVEHQICPAVCVLMKLSFDEEHRHAMNELGGLQAIAELLQVDCEMYGLTNDHYSVTLRRYAGMALTNLTFGDVANKATLCSMKGCMRALVAQLKSESEDLQQVIASVLRNLSWRADVNSKKTLREVGSVKALMECALEVKKESTLKSVLSALWNLSAHCTENKADICAVDGALAFLVGTLTYRSQTNTLAIIESGGGILRNVSSLIATNEDHRQILRENNCLQTLLQHLKSHSLTIVSNACGTLWNLSARNPKDQEALWDMGAVSMLKNLIHSKHKMIAMGSAAALRNLMANRPAKYKDANIMSPGSSLPSLHVRKQKALEAELDAQHLSETFDNIDNLSPKASHRSKQRHKQNLYGDYAFDANRHDDSRSDNFNTGNMTVLSPYLNTTVLPSSSSSRGSLDSSRSEKDRSLERERGIGLSAYHPTTENAGTSSKRGLQITTTAAQIAKVMEEVSAIHTSQDDRSSASTTEFHCVADDRSAARRSSASHTHSNTYNFTKSENSNRTCSMPYAKVEYKRSSNDSLNSVTSSDGYGKRGQMKPSVESYSEDDESKFCSYGQYPADLAHKIHSAN
notes: adenomatous polyposis coli (APC), Mus musculus, NCBI AAB59632.1, ARM domain residues 338 to 1010, without expression tags; also called APC ARM domain; source: E. coli BL21 (DE3), purified; E. coli lysate in the pull-down

Assays:
Conditions in all cases: both partners purified
[1] = target: T1, KIF3B C-terminal region (BCT), residues …; experiment: cryo-EM structure; ABK complex (KIF3A 481-701, KIF3B 475-747, KAP3 1-693), 0.75 mg/ml, single-particle, two maps
[2] = target: B1; experiment: cryo-EM structure; ABK-APCARM complex, 0.75 mg/ml and 0.375 mg/ml (tilted stage 30° and 40°), single-particle, merged datasets
[3] = target: T2, KIF3A/B/KAP3 cargo-binding domain complex (ABK), wild type (Mus musculus, UniProt P28741 481-701; Q61771 475-747; P70188-1 1-693); experiment: SPR; Biacore T200; APCARM immobilised on CM5 chip at around 200 RU by amine coupling; kinesin-2 complexes injected at 6.25 to 50 nM, 30 μl/min, 15°C; 20 mM Hepes pH 8.0, 150 mM NaCl, 1 mM dithiothreitol, 0.005% Tween 20; KD from Scatchard plot analysis
T2 construct: KIF3A, Mus musculus, NCBI NP_032469.2, C-terminal region residues 481 to 701 (ACT); KIF3B, Mus musculus, NCBI NP_032470.3, C-terminal region residues 475 to 747 (BCT); KAP3A, Mus musculus, NCBI NP_001292572.1, residues 1 to 693; The His tag is named on the complexes of the SPR experiment; also called ABK (WT); KIF3A/B tail/KAP3 complex; source: E. coli BL21 (DE3), reconstituted and purified (size …)
T2 sequence (P70188 1-693, one chain of several): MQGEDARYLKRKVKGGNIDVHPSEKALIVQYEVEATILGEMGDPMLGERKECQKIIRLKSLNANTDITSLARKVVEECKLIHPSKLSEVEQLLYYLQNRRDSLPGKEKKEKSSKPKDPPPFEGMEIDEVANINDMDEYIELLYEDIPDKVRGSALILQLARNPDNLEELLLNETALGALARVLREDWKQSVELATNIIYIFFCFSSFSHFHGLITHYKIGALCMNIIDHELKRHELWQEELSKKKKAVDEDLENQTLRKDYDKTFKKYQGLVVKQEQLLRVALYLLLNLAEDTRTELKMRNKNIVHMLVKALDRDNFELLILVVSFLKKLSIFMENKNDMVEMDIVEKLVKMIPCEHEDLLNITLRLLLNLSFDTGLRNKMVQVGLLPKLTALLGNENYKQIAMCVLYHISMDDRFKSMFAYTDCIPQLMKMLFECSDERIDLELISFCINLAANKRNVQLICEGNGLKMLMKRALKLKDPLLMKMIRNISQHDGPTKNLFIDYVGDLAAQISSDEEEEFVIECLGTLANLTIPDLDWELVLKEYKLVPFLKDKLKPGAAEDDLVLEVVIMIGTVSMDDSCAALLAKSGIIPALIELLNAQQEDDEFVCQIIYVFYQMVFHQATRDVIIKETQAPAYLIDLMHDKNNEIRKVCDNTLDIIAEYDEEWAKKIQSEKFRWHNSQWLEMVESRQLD

binding result [1]	binding result [2]	Kd [3] [nM]	Binder
binds	binds	–	KIF3A C-terminal region (ACT), residues 481 to 701 (domain or fragment, Mus musculus, UniProt P28741 481-701, looked up, KIF3A, Mus musculus, NCBI NP_032469.2, C-terminal region residues 481 to 701 (ACT); also called KIF3A tail; source: E. coli BL21 (DE3), coexpressed with the KIF3B tail from pETDuet-1, purified within the reconstituted complex) VIVGGVDLLAKAEEQEKLLEESNMELEERRRRAEQLRKELEEKEQERLDIEEKYTSLQEEAQGKTKKLKKVWTMLMAAKSEMADLQQEHQREIEGLLENIRQLSRELRLQMLIIDNFIPQDYQEMIENYVHWNEDIGEWQLKCVAYTGNNMRKQTPVPDKKERDPFEVDLSHVYLAYTEESLRQSLMKLERPRTSKGKARPKMGRRKRSAKPETVIDSLLQ
–	–	34.7 ± 0.6	B1
